These are literature values, as cited in patent US5362858A, “Polyethylene glycol-hirudin conjugates, process for preparing them and their use for the treatment of thromboses” (Transgene S.A., priority 1992, dated 1994).

The conditions of the series: removal from the bloodstream.

For hirudin, the half-life period entry was “about 1 h”.
